# Measurements reported in the nanobody polyreactivity screen of Harvey et al. (2022).
# Test: yeast display, Sf9 membrane polyspecificity reagent, FACS + sequencing; frameworks hold sequencing errors
# In short: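 After 36–48 hours of galactose induction, yeast (Saccharomyces cerevisiae BJ5465) displaying a synthetic nanobody library were stained at 4 °C for 1 hour with 10% biotinylated, detergent-solubilized Sf9 membrane reagent. Streptavidin microbeads enriched the stained cells before FACS sorting into low and high (top ~1%) gates on anti-HA and streptavidin fluorescence. Each clone's polyreactivity label reflects its gate of origin.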
row,Sequence,polyreactivity (PSR sort gate)
1,QVQLVESGGGLVQAGGSLRLSCAASGSIFTSNAMGWYRQAPGKERELVAAISYISGGTYYADSVKGRFTISRDNAKNTVYLQMNSLKPEDTAVYYCAAEQKWGSGQYDQGSYWYYYWGQGTQVTVSS,low polyreactivity
2,QVQLVESGGGLVQAGGSLRLSCAASGSIFTSNAMGWYRQAPGKERELVAAITSSSSTNYADSVKGRFTISRDNAKNTVYLQMNSLKPEDTAVYYCAKQGNNIPWYRPYGDYYYWGQGTLVTVSS,low polyreactivity
3,QVQLVESGGGLVQAGGSLRLSCAASGSIFTSNDMGWYRQAPGKERELVAAITNSGGSTYYADSVKGRFTISGDNAKNTVYLQMNSLKPEDTEVYYCAAEISILPFVTPDTIYGYWGQGTQVTVSS,low polyreactivity
4,QVQLVESGGGLVQAGGSLRLSCAASGSIFTSYAMGWYIPAPGKERELVASISGSGGSTYYADSVKGRFTISRDYSMNTVYLQMNRLKPEVTEVYVCANRCYNGWLRRYYYWGQGTNVTVSS,high polyreactivity
5,QVQLVESGGGLVQAGGSLRLSCAASGSIFTSYAMGWYRQAPGKERELVAAISRRGSRTYYADSVKGRFTISRDNANNTVYLQMNSLKPEETAVYDCAAKSGGQPGDSWGQGTQVTVSS,high polyreactivity
6,QVQLVESGGGLVQAGGSLRLSCAASGSIFTSYAMGWYRQAPGKERELVAAITSTGGSTYYADSVKGRFTISRDPAKNTVYLLMNSLKPEDTAVYYCNADGGTPYDYWGQGTQVTVSS,low polyreactivity
7,QVQLVESGGGLVQAGGSLRLSCAASGSIFTSYTMGWYSQAPGKERELVAAIDSGGDSTYYADSVKGRFTISRDNAKNTVYLQMNSLKPEDTAVYYCAAEPQYWWQDYRYNYWGQGTQVTVSS,high polyreactivity
8,QVQLVESGGGLVQAGGSLRLSCAASGSIFTTNAMGWYRQAPEKERELVATITWSDGSTYYADSVKGRFTISRDNAKNTVYLQMNSLKPEDTAVYYCATPYKRYFYKGGDYWGQGTQVSVSS,low polyreactivity
9,QVQLVESGGGLVQAGGSLRLSCAASGSIFTTYTMASYRQAPGKERELVAAISSSGVRTYYADSVKGRFTISRDNAKNTVYLQMNSLKPEDTAVYYCAARVGKYAEHRYNYWGQGTQVTVSS,high polyreactivity
10,QVQLVESGGGLVQAGGSLRLSCAASGSIFTTYTMGWYRQAPGKERELVAAITTSSGSTYYADSVKGRFTISRDNAKNTVYLQMNSLKPEDTAVYSCNATYSAAVDYWGQGTQVTVSS,low polyreactivity
11,QVQLVESGGGLVQAGGSLRLSCAASGSIFTVNAMGWYRQAPGKERELVARISWSGGSTYYADSVKGRFTISRDNAKNTVYLQMNSLKPEDTAVYYCAKGFYEGVPSYGYDYWGQGTQVTVSS,low polyreactivity
12,QVQLVESGGGLVQAGGSLRLSCAASGSIFTVYVIGGYRQAPGKEREFVAAITYSGGRTDYADSVKGRFTISRDNAKNTVYLQMNSLKPEDTAVYYCAKVRDVLWRFNYWGQGTQVTVSS,high polyreactivity
13,QVQLVESGGGLVQAGGSLRLSCAASGSIFTWYAMGWYRLAPGIDRELVAAITRGGSTYADSVTGRFTISRDNAKNTVYLQMNSLKPEDTAVYYCNAVYGVYDFNYWGQGTQVTVSS,low polyreactivity
14,QVQLVESGGGLVQAGGSLRLSCAASGSIFTWYAMGWYRQAPGKERELVAAITRGGSTYADSVKGRFTISRDNAKNTVYLQMNSLKPEDSAVYYCNAVYGVYDFTYWGPGTQVTVSS,low polyreactivity
15,QVQLVESGGGLVQAGGSLRLSCAASGSIFTWYAMGWYRQAPGKETELVARINVSAGITYYADSVKGRFTISRDNAKNTVYLQMNSLKPEDTAVYYCAAEDFTRQFEYWGQGTQVTVSS,low polyreactivity
16,QVQLVESGGGLVQAGGSLRLSCAASGSIFTYNAMGWYRKAPGKERELVAVISWSGGSTYYADSVKGRFTISRDNAKNTVYLQMNSLKPEDTAVYYCNSDYYRPYGNKYGYWGQGTQVTVSS,high polyreactivity
17,QVQLVESGGGLVQAGGSLRLSCAASGSIFTYNAMGWYRQAPGKERELVASISSGGITNYADSVKGRFTISRDNAKNTVYLQMNSLKPEDTAVYYCATEYLYVDFFIRYDYWGQGTQVTVSS,low polyreactivity
18,QVQLVESGGGLVQAGGSLRLSCAASGSIFTYNTMGWYRPAPGKERELVAAISSGGRTYYADSVKGRFTISRDNAKNTVYLQMTSLKPEDTAVYYCAARYYFWGQGTQVTVSS,high polyreactivity
19,QVQLVESGGGLVQAGGSLRLSCAASGSIFTYYAIGWYRQAPWKERELVAAISWSDGNTYYADSVKGRFTISRDNAKNTVYLQMNSLKPEDSAVYYCAAEYYVSRYWYPYDFYIMNYWGQGTQVTVSS,high polyreactivity
20,QVQLVESGGGLVQAGGSLRLSCAASGSIFTYYAMGWYRQAPGKEREFVAAISRRGGSTYYADSVKGRFTISRDNAKNTVYLQMNSLKPEDTAVYYCAATYPYRGFYGIRSQFDYWGQGTQVTVSS,high polyreactivity
21,QVQLVESGGGLVQAGGSLRLSCAASGSIFTYYAMGWYRQAPGKERELVAAISLDGGSTYYADSVKGRFTISRDNAKNTVYLQMNSLKPEDTAVYYCAAYPTYPDEYWGQGTQVTVSS,low polyreactivity
22,QVQLVESGGGLVQAGGSLRLSCAASGSIFTYYAMGWYRQAPGKERELVAAITRRGGSTYYADSVKGRFTISRDNAKNTVYLQMNSLKPEDTAVYYCNAFTYWASYWDYDYWGQGTQVTVSS,low polyreactivity

row,Sequence,polyreactivity (PSR sort gate)
1,QVQLVESGGGLVQAGGSLRLSCAASGSIFTYYAMGWYRQAPGKERELVAGISGGGRTNYADSVKGRFTISRDNAKNTVYLQMNSLKPEDTAVFYCAADWSFSTIRYWRFDSDYWGQGTQVTVSS,high polyreactivity
2,QVQLVESGGGLVQAGGSLRLSCAASGSIFTYYAMGWYRQAPGKERELVASINWSGGRTYYADSVKGRFTISRDNAKNTVYLQMNSLKPEDTAVYYCNARSAYGTGNQRGRRYYWGQGTQVTVSS,high polyreactivity
3,QVQLVESGGGLVQAGGSLRLSCAASGSIFTYYTMGWYRPAPGKERELVAAISNRGGSTYYADSVKGRFTISRDNSKITVYLQMNSLKPEDTAVYYCNKDVGVAVEMAYWGQGTQVTVSS,high polyreactivity
4,QVQLVESGGGLVQAGGSLRLSCAASGSIFTYYTMGWYRQAPGKERELVAAITVSGGRTFYADSVKGRFTISRDNAKNTVYLQMNSLKPEDTAVYYCAVKQVTLSPQYDYWGQGTQVTVSS,low polyreactivity
5,QVQLVESGGGLVQAGGSLRLSCAASGSIFVANPMGWYRQATGKERELVAVISSGGGSTSYADSVKGRFTISRDNAKNSVYLQMNSLKPEDTAVYYCNRRRYDAGSTMGYWGQGTQVTVSS,low polyreactivity
6,QVQLVESGGGLVQAGGSLRLSCAASGSIFVAYTMGWYRQAPGKERELVAAISRGGSTNYADSVKGRFTISRDNAKNTVDLQMNSLKPEDTAVYYCAAKVWDGQLLYYWGQGTQVTVSS,low polyreactivity
7,QVQLVESGGGLVQAGGSLRLSCAASGSIFVDNAMGWYRQAPGIERELVAVITLRSGSTNYADSVKGRFTISRDNAKNTVYLQMNSLKPEDTAVYYCAADDTYHDYQRDTDDDYWGQGTQVTVSS,low polyreactivity
8,QVQLVESGGGLVQAGGSLRLSCAASGSIFVDNAMGWYRQAPGKDRELVAVISWIGSSTYYADSVKGRFTISRDNAKNTDYFQMNSLKPEDTAVYYCAAAPSRTLLRQSKYYYWGQGTQVTVSS,low polyreactivity
9,QVQLVESGGGLVQAGGSLRLSCAASGSIFVDYAMGWSRPAPGKERELVVAISLSGGSTYYADSVKGRFTISRDNAKNTVYLQMNSLKPEDTAVYYCNAELIKGTYRWYEGGSQYGYWGHGTQVTVSS,low polyreactivity
10,QVQLVESGGGLVQAGGSLRLSCAASGSIFVDYAMGWYRPAPGNERELVADITSDGGSTDYADSVKGRFTISRDYAKNTVYLQMHSLNPEDTAVYDCAALKTQVLGVVEYGYDYWGQGTQVTVSS,high polyreactivity
11,QVQLVESGGGLVQAGGSLRLSCAASGSIFVDYAMGWYRQAPGKERELVAAITWRGDTTYYADSVKGRFTISRDNAKNTFYLQMNSLKPEDTAVYYCAAADPVGGEYWGQGTQVTVSS,low polyreactivity
12,QVQLVESGGGLVQAGGSLRLSCAASGSIFVFNAMGWYRQAPGKERELVAAISNGDGTNYADSVKGRFTISRDNAKNTVYLQMNSLKPEETAVYYCAAVWTTLIVIEYDYWGQGTQVTVSS,low polyreactivity
13,QVQLVESGGGLVQAGGSLRLSCAASGSIFVFYDMGWYRQAPGKERELVATISSGGGGTYYTDSVKGRFTISRDNAKNTVYLQMNSLKPEDTAVYYCAAEGDKYGKGDGYWGQGPQVTVSS,low polyreactivity
14,QVQLVESGGGLVQAGGSLRLSCAASGSIFVGFARGWYRQAPGKERELVAAISWSGDSTYYADSVKGRVTISRDNAKKTVYLQLNSLKPEDTAVYYCAVDYAEIGPRREVEYDYWGQGTQVTVSS,low polyreactivity
15,QVQLVESGGGLVQAGGSLRLSCAASGSIFVGNAMGWYRQAPGKERELVAAINSGGSTYYADSVKGRFTISRDNAKNTVYLQMNSLKPEDTAVYYCAAEGTYSYYLYEYWGLGTQVTVSS,low polyreactivity
16,QVQLVESGGGLVQAGGSLRLSCAASGSIFVGNVMGWYRQAPGKERELVAAISRTGGTYYADSVKGRFTISRDNAKNTVYLQMNSLKPEDTAVYYCNKVSLRQSRMYYWGQGTQVTVSS,high polyreactivity
17,QVQLVESGGGLVQAGGSLRLSCAASGSIFVGYAMGWYRQAPGKERELVAAISWSGDSTYYADSVKGRFTISRDNAKNTVYLQMNSLTPEDTAVYYCAVDYAEIGPRPEVEYDYWGQGTQVTVSS,low polyreactivity
18,QVQLVESGGGLVQAGGSLRLSCAASGSIFVGYAMGWYRQAPGKERELVAAISWSGDSTYYADSVKGRFTISRDTAKNTVYLQMNSLKPEDTAVYYCAVDYAEIGPRREVEYDYWGQGTQVTVSS,low polyreactivity
19,QVQLVESGGGLVQAGGSLRLSCAASGSIFVGYGAMGWYRQAPGKERELVAAITSGTSTYYADSVKGRFTISRDNAKNTVYLQMNSLKPEDTAVYYCAARGFLKYVTEFDYWGQGTQVTVSS,low polyreactivity
20,QVQLVESGGGLVQAGGSLRLSCAASGSIFVGYTMGWYRQAPGKERELVAAITRRGGSTYYADSVKGRFTISRDNAKNTVYLQMNSLKPEDTAVYYCAAEVRRYVIVPYYYWGQGTQLTVSS,high polyreactivity
21,QVQLVESGGGLVQAGGSLRLSCAASGSIFVHNAMGWYRQAPGKERELVAAITWSGGSTYYADSVKGRFTISRDNAKNTVYLQMNSLKPEDTAVYYCAAEDVAAQWAYESPTSYWYYYIYEYWGQGTQVTVSS,low polyreactivity
